B1: Monoclonal antibody SAIT-Ang-2-6 (antibody, V domains shown)
VH: QVQLQQPGSELVRPGTSVKLSCKASGYTFTNYLMHWVKQRPGQGLEWIGNIYPGSGATNYDEKFKSKATLTVDISSSTAYMQLISLTSEDSAVYYCTRDDYDGSWFAYWGQGTLVTVSA
VL: DIVMTQSPSSLSVSAGEKVTMTCKSSQSLLISGNQKNFLAWYQQKPGQPPKLLIYGASTRDSGVPDRFTGSGSGTDFTLTISSVQAEDLAVYYCQNDHSYPLTFGTGTKLELK
notes: also called antibody of hybridoma KCLRF-BP-00222
B2: Monoclonal antibody SAIT-Ang-2-5 (antibody, V domains shown)
VH: DVQLVESGGGLAQPGGSRKLSCAASGFTFSNFGMHWVRQAPEKGLDWVAYISSGSDTIYYADTVKGRFTISRDNPKNTLFLQMTSLRSEDTAMYYCARESTMITMGYVLDYWGQGTSVTVSS
VL: DIQMTQSPASQSASLGESVTITCLASQTIGTWLAWYQQKPGKSPQLLIYAATSLADGVPSRFSGSGSGTKFSLKISSLQAEDFVSYYCQQLYSIPLTIGAGTKLELK
notes: also called antibody of hybridoma KCLRF-BP-00221

What was measured:
[1] = target: T1, recombinant hAng-2 (a recombinant human angiopoietin-2 protein with an attached His tag; R&D Systems) (human, UniProt O15123 19-496); experiment: competitive ELISA: inhibition of 1 nM hAng-2 binding to coated hTie2-Fc
T1 construct: Bought reagent; not shown: His tag
T1 sequence (looked up): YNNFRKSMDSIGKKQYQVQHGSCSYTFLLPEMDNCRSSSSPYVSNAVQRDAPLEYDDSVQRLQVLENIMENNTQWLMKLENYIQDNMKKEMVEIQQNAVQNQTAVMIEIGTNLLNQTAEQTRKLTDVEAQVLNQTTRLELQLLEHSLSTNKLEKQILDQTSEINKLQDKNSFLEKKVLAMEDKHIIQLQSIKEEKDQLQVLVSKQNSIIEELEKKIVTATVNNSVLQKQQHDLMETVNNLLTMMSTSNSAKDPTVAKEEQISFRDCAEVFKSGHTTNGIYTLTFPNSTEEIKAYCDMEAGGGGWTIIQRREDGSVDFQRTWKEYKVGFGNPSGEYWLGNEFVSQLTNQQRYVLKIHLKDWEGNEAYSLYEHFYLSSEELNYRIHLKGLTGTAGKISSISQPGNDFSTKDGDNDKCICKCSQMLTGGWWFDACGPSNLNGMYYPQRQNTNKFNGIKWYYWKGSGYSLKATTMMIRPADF
Description: A 96-well MaxiSorp™ flat-bottom plate (Nunc) was coated with recombinant human Tie2-Fc (hTie2-Fc) (R&D Systems, Inc.) dissolved in DMEM culture containing 50 μg/ml bovine serum albumin (BSA). The hTie-2Fc is a chimeric protein including the water-soluble extracellular region of human Tie-2 and the Fc fragment of human IgG₁. The concentration of hTie2-Fc immobilized was equivalent to 75% of its maximum binding concentration with 1 nM of recombinant hAng-2 (a recombinant human angiopoietin-2 protein with an attached His tag; R&D Systems). The plate was washed with Phosphate Buffered Saline (PBS) containing 0.1% TWEEN-20 five times and blocked with PBS containing 5% BSA at room temperature for two hours. To perform an ELISA experiment for determining whether binding between angiopoietin-2 and Tie-2 was neutralized, each of the monoclonal antibodies SAIT-Ang-2-5 and SAIT-Ang-2-6 prepared according to Example 1 were serially diluted from 100 nM by one-fourth each time with PBS containing 1% BSA and 1 nM hAng-2 and adjusted to a concentration of 6.1 pM. […] The OD₄₅₀ value was read on a plate reader (Molecular Devices). […] Based on the results, each of the monoclonal antibodies SAIT-Ang-2-5 and SAIT-Ang-2-6 of Example 1 was determined to be capable of neutralizing binding between angiopoietin-2 and Tie-2 (refer to Table 1).

[2] = target: T1, recombinant hAng-2 (a recombinant human …); experiment: SPR (BIAcore T100), hAng-2 amine-coupled on CM5 chip, antibody as analyte
Description: The affinity of each of the monoclonal antibodies SAIT-Ang-2-5 and SAIT-Ang-2-6 of Example 1 to angiopoietin-2 was measured using a surface plasmon resonance (SPR) device (BIAcore T100, GE Healthcare). 20 μg/ml recombinant hAng-2 (R&D Systems) was immobilized on a CM5 chip (GE Healthcare) using a pH 4.5 acetate solution and an amine coupling kit (GE Healthcare). Each of the monoclonal antibodies SAIT-Ang-2-5 and SAIT-Ang-2-6 of Example 1 was diluted to eight different concentrations down to 0.78125 nM by serially diluting to ½ each time starting from 100 nM. Then, the antigen/antibody affinity was measured by binding each antibody with the antigen immobilized on the CM5 chip and dissociating the antigen from the antibody using a pH2.2 glycine-HCl solution. […] From the results, the affinity of each monoclonal antibody SAIT-Ang-2-5 and SAIT-Ang-2-6 of Example 1 to angiopoietin-2 was determined.

Binder | IC50 [1] [nM] | Kd [2] [nM] | koff [2] [s⁻¹] | kon [2] [M⁻¹ s⁻¹]
B1 | 1.86 | 1.27 | 0.00207 | 1.64e+06
B2 | 0.764 | 0.902 | 0.00178 | 1.97e+06
